This is an account of results in patent US20230002466A1 (ELPIS BIOPHARMACEUTICALS, published 2023).

Numbering of substitutions follows the chain as printed.

Usually Kd stands for the equilibrium constant for the complex coming apart. The term EC50 denotes the concentration at which the effect is half-maximal. As usually defined, the koff is the first-order rate constant of dissociation. Broadly, the kon is the rate constant with which the complex forms.

The target of experiment [1] is T1, human IL2Rβ (human, UniProt P14784 27-239).
T1 construct: also called IL2β; CD122
T1 sequence (looked up): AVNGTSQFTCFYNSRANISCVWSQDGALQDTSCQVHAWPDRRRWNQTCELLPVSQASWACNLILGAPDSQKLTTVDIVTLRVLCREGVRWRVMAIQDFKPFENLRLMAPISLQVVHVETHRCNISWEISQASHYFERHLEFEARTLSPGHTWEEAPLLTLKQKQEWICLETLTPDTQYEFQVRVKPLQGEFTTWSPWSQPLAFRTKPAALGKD
Kind of experiment: SPR, single concentration.

Experiment [2] concerns the target T2, human IL2Rβ Fc fusion protein (human, UniProt P14784 27-239).
T2 construct: also called Recombinant Fc-tagged human IL2Rβ; not shown: Fc
T2 sequence (looked up): T1 sequence (looked up)
Description: ELISA, Fc-tagged receptor coated, anti-HisTag-HRP. Summed up:
(§1)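 IL2 mutants, diluted from 1000 nM to 0 nM, were incubated 2 h at RT on plates coated overnight at 4 °C with Fc-tagged human IL2Rα (or IL2Rβ). Bound protein detected with anti-HisTag-HRP (1:5000, 1 h) and TMB. Absorbance read at 450 nm after acid stop.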
On the technique in general: An ELISA detects its analyte on a solid surface through an enzyme-linked reagent.

Experiment [3] has as its target T3, recombinant His-tagged human IL2Rβ (human, UniProt P14784 27-239).
T3 construct: also called hIL2Rβ; not shown: His tag
T3 sequence (looked up): T1 sequence (looked up)
Kind of experiment: SPR (Biacore T200): Fc fusion captured on anti-hFc chip, IL2Rβ-HIS injected in 2-fold dilutions from 100 nM. As for the experimental part: Binding kinetics of monovalent IL2Rβ Fc fusion proteins have been analyzed by SPR technology with Biacore T200. Briefly, anti-hFc antibody was immobilized on flow cell 1 and 2. For each cycle, 1 ug/mL of IL2 Fc fusion protein was captured for 60 seconds at flow rate of 10 ul/min on flow cell 2 in 1×HBSP buffer on anti-hFc immobilized chip. 100 nM IL2Rα-HIS tagged or IL2Rβ-HIS tagged was 2-fold serial diluted and injected onto both reference flow cell 1 and IL2 Fc fusion protein were captured at flow cell 2 for 150 seconds at flow rate of 30 ul/mins. 300 seconds wash was applied after the last injection. The assay was set up with 8 serial diluted concentration points in 96 well format. The kinetics data was analyzed with Biacore T200 evaluation software 3.0. The specific binding response unit was derived from subtraction of binding to reference flow cell 1 from target flow cell 2 (FIGS. 39A-39D).
(In general: Surface plasmon resonance follows binding to a sensor surface in real time, without labels.)

For experiment [4], the target named is T4, human IL2Rα (human, UniProt P01589 22-213, limits assumed).
T4 construct: also called IL2α; CD25
T4 sequence (looked up): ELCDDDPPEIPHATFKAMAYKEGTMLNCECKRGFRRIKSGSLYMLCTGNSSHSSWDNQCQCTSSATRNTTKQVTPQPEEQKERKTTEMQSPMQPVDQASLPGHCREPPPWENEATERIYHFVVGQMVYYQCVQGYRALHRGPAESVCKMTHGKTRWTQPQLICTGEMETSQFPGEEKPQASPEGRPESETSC
Kind of experiment: SPR, receptor captured on Protein A chip, mammalian-produced IL2. As for the experimental part:
(§2) The assay was run with Biacore T200 control software version 2.0. For each cycle, 1 μg/mL of human IL2Rβ or IL2Rα was captured for 60 seconds at flow rate of 10 μL/min on flow cell 2 in 1×HBST buffer on Protein A sensor chip. Two-fold serial diluted HIS tag purified engineered IL2 mutant was injected onto both reference flow cell 1 and IL2Rβ or IL2Rα captured flow cell 2 for 150 seconds at flow rate of 30 μL/min followed by washing for 300 seconds. The flow cells were then regenerated with Glycine pH 2 for 40 seconds at a flow rate of 30 μL/mins. Eight concentration points from 0 to 100 nM were assayed for each IL2Rβ agonist clone 96-well plate format. The kinetics data was analyzed with Biacore T200 evaluation software 3000. The specific binding response unit was derived from subtraction of binding to reference flow cell 1 from target flow cell 2.

Experiment [5] concerns the target T1, human IL2Rβ. The description is as above. As for the experimental part:
as §2

In experiment [6] the target is T4, human IL2Rα. Kind of experiment: SPR, IL2Rα captured on Protein A chip, IL2 at 100 nM. As for the experimental part:
The binding kinetics of IL2Rα-reduced binding clones to IL2Rα was assessed utilizing SPR technology with a Biacore T200, software version 2.0. For each cycle, 1 ug/mL of human IL2Rα was captured for 60 seconds at a flow rate of 10 uL/min on flow cell 2 in 1×HBSP buffer on a Protein A sensor chip. 100 nM of each HIS and Flag tag purified IL2 mutant was injected onto both the reference flow cell 1 and IL2Rα captured flow cell 2 for 150 seconds at a flow rate of 30 uL/min followed by washing for 300 seconds. The flow cells were then regenerated with Glycine pH 2.0 for 60 seconds at a flow rate of 30 uL/min. A HBSP+ buffer was included with each sample as a baseline control. The assay was set up in a 96-well format. The kinetics data was analyzed with Biacore T200 evaluation software 3.0. The specific binding response unit was derived from subtraction of binding to reference flow cell 1 from IL2Rα flow cell 2 and subtraction of buffer control. […] Relative response (RU) was determined for each IL2Rα-reduced binding clone (FIG. 4, Table 3).

Experiment [7] addresses T5, human IL2Rα Fc fusion protein (human, UniProt P01589 22-213, limits assumed).
T5 construct: also called Recombinant Fc-tagged human IL2Rα; not shown: Fc
T5 sequence (looked up): T4 sequence (looked up)
Description: ELISA, receptor-Fc coated, anti-Flag HRP. The procedure, abridged:
(§3)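 Plates coated overnight at 4 C with IL2Rα or IL2Rβ Fc fusion at 2 ug/mL, then blocked. Flag-tagged IL2 mutant dilutions were added in duplicate, and binding was detected with anti-Flag HRP (1:5000) and TMB for 5 min. EC50 was fitted from OD450.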

Experiment [8] has as its target T2, human IL2Rβ Fc fusion protein. Description: ELISA, receptor-Fc coated, anti-Flag HRP. Summed up: as §3
The target of experiment [9] is T4, human IL2Rα. Kind of experiment: SPR, receptor captured on Protein A chip, E. coli-produced IL2. As for the experimental part:
as §2

Experiment [10] deals with T1, human IL2Rβ. The description is as above. As to the method: as §2
In experiment [11] the target is T1, human IL2Rβ. Kind of experiment: SPR, IL2Rβ captured on Protein A chip. As for the experimental part:
(§4) The assay was run with Biacore T200 control software version 2.0. For each cycle, 1 ug/mL of human IL2Rβ was captured for 60 seconds at flow rate of 10 uL/min on flow cell 2 in 1×HBSP buffer on Protein A sensor chip. 100 nM of HIS and Flag tag purified each IL2 mutant was 2-fold serial diluted and injected onto both reference flow cell 1 and IL2Rβ captured flow cell 2 for 150 seconds at flow rate of 30 uL/min followed by washing for 300 seconds. The flow cells were then regenerated with Glycine pH2 for 60 seconds at a flow rate of 30 uL/min. The assay was set up with 8 serial diluted concentration points in 96-well format. The kinetics data was analyzed with Biacore T200 evaluation software 3.0. The specific binding response unit was derived from subtraction of binding to reference flow cell 1 from target flow cell 2 (FIGS. 16A-16F, Table 10).

Experiment [12] addresses T5, human IL2Rα Fc fusion protein. Description: ELISA, Fc-tagged receptor coated, anti-HisTag-HRP. The procedure, abridged:
as §1

For experiment [13], the target named is T1, human IL2Rβ. Kind of experiment: SPR, IL2Rβ captured on Protein A chip, steady state affinity fitting. As to the method:
as §4

Experiment [14] has as its target T4, human IL2Rα. Description: SPR (Biacore T200), human IL2Rα, one trace per clone drawn, concentrations not printed (Example 13).
Experiment [15] addresses T5, human IL2Rα Fc fusion protein. Description: ELISA, single point, Fc-tagged human IL2Rα coated, anti-His-HRP; concentration not printed (Example 14). As for the experimental part:
Recombinant Fc-tagged human IL2Rα and IL2Rβ were added in 25 uL of 1×PBS to wells of 384-well plate and incubated overnight at 4° C. to coat the plates. Plates were washed three times with 0.05% Tween20/1×PBS. Plates were blocked with 100 uL of SuperBlock for 1 hr at RT and then washed 3 times with 0.05% Tween20/1×PBS. IL2 mutants were diluted in 0.05% Tween 20/1×PBS from 1000 nM to 0 nM and added to plates for 2 hrs at room temperature. Plates were then washed 6 times with 0.05% Tween20/1×PBS. Anti-HisTag-HRP was diluted 1:5000 in 0.05% Tween20/1×PBS and added to plates for 1 hr at RT. Plates were then washed 6 times with 0.05% Tween 20/1×PBS, and TMB was added to develop blue color. Reactions were stopped with 2N […] and light absorbance at 450 nm was read on a BioTek plate reader.

B1: EP349 (ligand)
chain: APTSSSTKKTQLQLEHLLLDLQMILNGINNYKNPKLTRMLTAKFYMPKKATELKHLQCLEEELKPLEEVLNLAQSKNFHLTARDAIDNINVIVQELKGSETTFMCEYADETATIVEFLNRWITFSQSIISTLTGSHHHHHH
B1 showed a Kd in the experiment with human IL2Rβ [1] of 2.79 nM. The molecule also yielded a half-maximal effective concentration (EC50) in experiment [2] of 948 nM.

B2: EP345 (ligand)
chain: B1 chain with R38V, A42F, Y45S
With B2, the Kd in the experiment with human IL2Rβ [1] turned out to be 12.5 nM. Besides, the EC50 in experiment [2] is 152 nM.

B3: EP214/EP215 (Fc fusion)
chain: APTSSSTKKTQLQLEHLLLDLQMILNGINNYKNPKLTEMLTFKFYMPKKATELKHLQCLEEELKPLEEVLNLAQSKNFHLTARDAVDNMRVIIQELKGSETTFMCEYADETATIVEFLNRWITFSQSIISTLTESKYGPPCPPCPAPEFEGAPSVFLFPPKPKDTLMISRTPEVTCVVVDVSQEDPEVQFNWYVDGVEVHNAKTKPREEQFQSTYRVVSVLTVLHQDWLNGKEYKCKVSNKGLPSSIEKTISKAKGQPREPQVYTLPPCQEEMTKNQVSLWCLVKGFYPSDIAVEWESNGQPENNYKTTPPVLDSDGSFFLYSALTVDKSRWQEGNVFSCSVMHEALHNHYTQKSLSLSLGK
Fc: ESKYGPPCPPCPAPEFEGAPSVFLFPPKPKDTLMISRTPEVTCVVVDVSQEDPEVQFNWYVDGVEVHNAKTKPREEQFQSTYRVVSVLTVLHQDWLNGKEYKCKVSNKGLPSSIEKTISKAKGQPREPQVCTLPPSQEEMTKNQVSLSCAVKGFYPSDIAVEWESNGQPENNYKTTPPVLDSDGSFKLVSRLTVDKSRWQEGNVFSCSVMHEALHNHYTQKSLSLSLGK
With B3, in [3], the Kd is 5.79 nM, the koff was determined as 0.00883 s⁻¹ and the kon was found to be 1.53e+06 M⁻¹ s⁻¹.

B4: EP003 (ligand)
chain: APTSSSTKKTQLQLEHLLLDLQMILNGINNYKNPKLTRMLTFKFYMPKKATELKHLQCLEEELKPLEEVLNLAQSKNFHLGVTDSISNAIVLARELKGSETTFMCEYADETATIVEFLNRWITFCQSIISTLT
notes: Produced in E. coli or mammalian cells; also called EP03; EP0003; not shown: C-terminal Flag and 6xHis tags
Turning to B4, in the experiment with human IL2Rα [4], the Kd came to 302 nM and the “relative activity IL2Rα (KD: fold) against WT IL2” value is -22.4 fold. Further, in the experiment with human IL2Rβ [5], the equilibrium dissociation constant (Kd) amounted to 0.145 nM, the koff was 0.000376 s⁻¹, the on-rate constant (kon) was found to be 2.59e+06 M⁻¹ s⁻¹ and the “relative activity IL2Rβ (KD: fold) against WT IL2” value was 6970 fold. In addition, in the experiment with human IL2Rα [6], the “RU (at 100 nM)” value is 40.8 RU and the “Relevant binding to WT IL2 (%)” value was 28.7%. In addition, a half-maximal response in experiment [7] (EC50) required 538 nM. Further, in [8], the EC50 was 1.8 nM. In addition, in the experiment with human IL2Rα [9], the Kd was 21.4 nM and the “relative activity IL2Rα (KD: fold) against WT IL2” value is -2.3 fold. In the experiment with human IL2Rβ [10], the affinity, expressed as Kd, was 0.123 nM; the koff turned out to be 0.00027 s⁻¹; the kon was 2.18e+06 M⁻¹ s⁻¹; the “relative activity IL2Rβ (KD: fold) against WT IL2” value was found to be 35200 fold.

B5: EP258 (ligand)
chain: B4 chain with G81T, V82A, T83R, S85A, A89I, I90N, L92I, A93I, R94Q
notes: not shown: His and Flag tags
For the molecule B5, binding with human IL2Rβ [11] was put at a Kd of 8.81 nM. Also, the koff with human IL2Rβ [11] is 0.0301 s⁻¹. The molecule further returned an on-rate (kon) in the experiment with human IL2Rβ [11] of 3.42e+06 M⁻¹ s⁻¹. Also, the EC50 in [12] turned out to be 9.1 nM; in experiment [2], 119 nM; in [7], 2.5 nM; in [8] it was 6.5 nM.

B6: EP252 (ligand)
chain: B4 chain with G81T, V82P, T83R, S85A, S87D, A89I, I90R, L92I, A93V, R94Q
notes: not shown: His and Flag tags
In the case of B6, in the experiment with human IL2Rβ [13], the affinity, expressed as Kd, was 9.11 nM. Further, the EC50 turned out to be 13.8 nM in [12], 24.5 nM in [2], 13 nM in experiment [7] and 2.2 nM in experiment [8].

B7: EP340 (ligand)
chain: APTSSSTKKTQLQLEHLLLDLQMILNGINNYKNPLLTDMLTRKFYMPKKATELKHLQCLEEELKPLEEVLNLAQSKNFHLTPRDAIDNIRVIILELKGSETTFMCEYADETATIVEFLNRWITFCQSIISTLT
notes: not shown: His and Flag tags
In experiment [2], B7 showed an EC50 of 185 nM. In addition, the binding result (in the experiment with human IL2Rα [14]; in experiment [15]) was “no binding (tested: not printed)” in each case.
